Target: PglK-E510Q (C. jejuni) (UniProt Q0P9C4)
Assay: crystal structure

Substance: PglK-E510Q (from UniProt Q0P9C4) (natural protein)
- stoichiometry N: 2
